T1: cynomolgus TROP2-his protein (cynomolgus monkey, UniProt P09758 27-272 (human entry), limits assumed)
T1 construct: no cleavage site is stated; also called Cynomolgus monkey TROP2-his protein; monkey TROP2
T1 chain: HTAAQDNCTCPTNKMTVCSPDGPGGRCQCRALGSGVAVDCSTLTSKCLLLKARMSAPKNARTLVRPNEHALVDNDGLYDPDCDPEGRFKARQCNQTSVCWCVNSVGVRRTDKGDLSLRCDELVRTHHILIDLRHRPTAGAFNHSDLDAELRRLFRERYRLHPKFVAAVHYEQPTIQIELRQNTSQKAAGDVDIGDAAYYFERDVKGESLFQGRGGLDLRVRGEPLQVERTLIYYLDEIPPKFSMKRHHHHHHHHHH

T2: human TROP2-his protein (human, UniProt P09758 27-274)
T2 construct: Biotin-labelled in the ELISAs, unlabelled analyte in Biacore; also called biotin-labeled human TROP2-his protein; biotin human Trop2-his
T2 sequence: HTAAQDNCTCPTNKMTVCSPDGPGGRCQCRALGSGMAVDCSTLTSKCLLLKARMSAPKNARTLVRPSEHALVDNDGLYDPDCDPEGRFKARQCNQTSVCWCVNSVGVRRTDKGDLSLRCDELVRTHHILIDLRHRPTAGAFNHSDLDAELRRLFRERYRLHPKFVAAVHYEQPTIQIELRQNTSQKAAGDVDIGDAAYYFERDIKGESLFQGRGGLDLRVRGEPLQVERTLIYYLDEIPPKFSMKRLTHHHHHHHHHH

B1: benchmark (in house prepared sacituzumab) (antibody, human IgG1, kappa, V domains shown)
VH: SVQLQQSGSELKKPGASVKVSCKASGYTFTNYGMNWVKQAPGQGLKWMGWINTYTGEPTYTDDFKGRFAFSLDTSVSTAYLQISSLKADDTAVYFCARGGFGSSYWYFDVWGQGSLVTVSS
VL: DIQLTQSPSSLSASVGDRVSITCKASQDVSIAVAWYQQKPGKAPKLLIYSASYRYTGVPDRFSGSGSGTDFTLTISSLQPEDFAVYYCQQHYITPLTFGAGTKVEIKR
notes: also called BM; BM1
B2: huA1E4F7D4-V16 (antibody, human IgG1, kappa, V domains shown)
VH: QVQLVQSGAEVKKPGASVKVSCKASGYSFTTHWIHWVRQAPGQGLEWIGTIFPSNAYAVYNQKFRDRATMTADTSISTAYIELSRLRSDDTAVYYCARASYFDYWGQGTTVTVSS
VL: EIVLTQSPATLSLSPGERATLSCRASQNIGTSIHWFQQKPGGAPRLLIKYASESISGIPSRFSGSGSGTDFTLTISSLEPEDFAVYYCQHSHSWPFTFGQGTKLEIKR
notes: Positions of the X residues are given in the claims; also called humanized antibody huA1E4F7D4-V16
B3: mouse antibody C1B3B12D2 (antibody, V domains shown)
VH: QVQLQQSGPELVRPGTSVKMSCKAAGYTFTKFWIGWVKQRPGHGLEWIGNIYPGGAYINYNENFKGKATLTADTFSSTAYMQLNSLTSADSAIYYCAREGSSGYWGQGTTLTVSS
VL: DIVMTQSPSSLTVTAGEKVTLSCKCSQSLLNSGTQENYLTWYQQKPGQPPKMLIYWASIREPGVPDRFTGSGSGTDFTLTINNVQAEDLAVYYCQHDYSYPFTFGSGTKLEIK
notes: Mouse monoclonal IgG purified from hybridoma supernatant
B4: mouse antibody A1E4F7D4 (antibody, V domains shown)
VH: QVQLQQSGAELAKPGTSVKMSCEASGYSFTTHWIHWMKQRPGQGLEWIGTIFPSNAYAVYNQKFRDRAIMTADRSSTTAYIQLTGLTSEDSAVYYCARASYFDYWGQGTTLTVSS
VL: DILLTQSPATLSVSPGERVTFSCRASQNIGTSIHWFQQRTTGSPRLLIKYASESISGIPSRFSGSGSGTDFTLHINSVESEDIAHYYCQHSHSWPFTFGSGTKLEIQ
notes: Mouse monoclonal IgG purified from hybridoma supernatant; also called Mouse A1E4F7D4
B5: mouse antibody A1E11A12D1 (antibody, V domains shown)
VH: QVQLQQSGAELARPGASVKLSCMASGYTFTTYGISWVRQRTGQGLEWIGQIYPGSDYSYCDEDFKGKATLTADKSSSTAYMQLSSLTSEDSAVYFCARASYFDYWGQGTTLTVSS
VL: DILLTQSPAILSVSPGERVSFSCRASQTIGTAIHWYQQRANGSPRLLIKYASESISGIPSRFSGSGSGTDFALSINTVESEDFAYYYCQQSNNWPFTFGGGTKLEIR
notes: as for B3

Key:
[1] = target: T1, cynomolgus TROP2-his protein; assay: SPR Biacore, antibody captured on anti-human IgG CM5 chip, TROP2-his analyte
Description: (§1) Un-reacted moieties on the chip (biosensor) surface were blocked with ethanolamine. […] The antigen-antibody association kinetics was followed for 2 minutes and the dissociation kinetics was followed for 10 minutes. The association and dissociation curves were fit to a 1:1 Langmuir binding model using BIAcore evaluation software.

human TROP2-his protein [2] = target: T2, human TROP2-his protein; assay: as above
Description: as §1

human TROP2-his protein [3] = target: T2, human TROP2-his protein; assay: epitope grouping ELISA, 15 ug/ml antibody premixed with biotin human TROP2-his; competitor: coated BM1
Description: (§2) Firstly, capture ELISA was performed to determine the concentration of biotin-labeled human Trop2 proteins appropriate for the epitope binning test. […] The plates were washed for 4 times, added with 100 μl/well of serially diluted biotin human Trop2-his proteins (SEQ ID NO: 67) in PBST with 2.5% non-fatty milk (starting from 1.3 μg/ml with a 5-fold serial dilution), and incubated for 40 min at 37° C. Then the plates were washed for 4 times and added with 100 μl/vell of HRP-streptavidin (Jackson Immuno Research, Cat #016-030-084). The plates were incubated for another 40 min at 37° C. Then the plates were washed again, and 100 μl/well TMB was added for color development at RT for 15 min followed by quenching with 50 μl 1M H₂SO₄. The OD values at 450 nm were read.
(§3) With the appropriate concentration determined above, epitope grouping ELISA was performed. […] ELISA plates were washed once with wash buffer (PBS+0.05% v/v Tween-20, PBST) and then blocked with 200 μl blocking buffer (5% w/w non-fatty milk in PBST) for 2 hours at 37° C. […] The mixtures were incubated at room temperature for 40 minutes. After plate washing for 4 times, the antibody/biotin-TROP2-his protein mixtures were added to the antibody coated plates, 100 μl per well, and incubated for another 40 min at 37° C. Then 100 μl/well of HRP-streptavidin was added and incubated for 40 min. Then OD₄₅₀ values were determined and the cross-competition capability was calculated (cross-competition capability of antibody X (%)=(OD₄₅₀ of Antibody X-[…] of Blank)/(OD₄₅₀ of no mAb-OD₄₃₀ of Blank)*100%).

human TROP2-his protein [4] = target: T2, human TROP2-his protein; assay: epitope grouping ELISA, 15 ug/ml antibody premixed with biotin human TROP2-his; competitor: coated BM2
Description: as §2, §3

human TROP2-his protein [5] = target: T2, human TROP2-his protein; assay: epitope grouping ELISA, 15 ug/ml antibody premixed with biotin human TROP2-his; competitor: coated huA1E4F7D4-V16
Description: as §2, §3

human TROP2-his protein [6] = target: T2, human TROP2-his protein; assay: competitive ELISA: BM1 coated, antibody premixed with biotin human TROP2-his; blocked: binding of TROP2-his to coated BM1; partial only: OD falls from about 1.9 to a plateau of about 1.3
human TROP2-his protein [7] = target: T2, human TROP2-his protein; assay: competitive ELISA: BM1 coated at 1 ug/mL, antibody premixed with biotin human TROP2-his; blocked: binding of TROP2-his to coated BM1; partial only: OD drops from about 1.45 to a plateau of about 0.8
Description: (§4) The mouse anti-TROP2 antibodies were tested for epitope binding in a competitive ELISA assay. […] ELISA plates were washed once with wash buffer (PBS+0.05% v/v Tween-20, PBST) and then blocked with 200 μl blocking buffer (5% w/v non-fatty milk in PBST) for 2 hours at 37° C. While blocking, the anti-TROP2 antibodies or controls were diluted with biotin labeled human TROP2-his protein (SEQ ID NO: 67, 34 ng/mL in 2.5% wA non-fatty milk in PBST), starting at 80 nM with a 5-fold serial dilution, and incubated at room temperature for 40 minutes. After plate washing for 4 times, the antibody/TROP2-his protein mixtures were added to the antibody coated plates, 100 μl per well. After incubation at 37° C. for 40 minutes, plates were washed 4 times again using wash buffer. Then the plates were added and incubated with 100 μl Peroxidase Streptavidin (1:10000 dilution in PBST buffer. Jackson Immunoresearch, Cat #016-030-084) for 40 minutes at 37° C. Plates were washed again using wash buffer. Finally, TMB was added and the reaction was stopped using 1M H₂SO₄. The absorbance of each well was read on a microplate reader using dual wavelength mode with 450 nm for TMB and 630 nm as the reference wavelength, and the OD (450-630) values were plotted against antibody concentration. Data was analyzed using Graphpad Prism software and IC₅₀ values were reported.

human TROP2-his protein [8] = target: T2, human TROP2-his protein; assay: competitive ELISA: mouse A1H3C5H8E12 coated at 2 ug/mL, antibody premixed with biotin human TROP2-his; blocked: binding of TROP2-his to coated A1H3C5H8E12
Description: as §4

Binder | Kd [1] [nM] | Kd (human TROP2-his protein [2]) [nM] | OD450 (human TROP2-his protein [3]) [OD450] | OD450 (human TROP2-his protein [4]) [OD450] | OD450 (human TROP2-his protein [5]) [OD450] | IC50 (human TROP2-his protein [6]) [nM] | IC50 (human TROP2-his protein [8]) [nM] | also measured
B1 | 0.529 | 0.983 | 0.048 | 0.031 | 1.61 | – | – | –
B2 | 0.132 | 0.183 | 1.42 | 1.92 | 0.027 | 0.353 | – | koff [1]: 0.000164 s⁻¹; kon [1]: 1.25e+06 M⁻¹ s⁻¹; koff (human TROP2-his protein [2]): 0.000195 s⁻¹; kon (human TROP2-his protein [2]): 1.06e+06 M⁻¹ s⁻¹
B3 | – | – | – | – | – | – | – | IC50 (human TROP2-his protein [7]): ~0.6 nM
B4 | – | – | – | – | – | 0.702 | 0.621 | –
B5 | – | – | – | – | – | – | 0.933 | –

Source: US20240207432A1 (BIOSION, published 2024)
